The target in this assay is human LAG‐3 on JRT LAG‐3^+ C8 cells (human) (UniProt P18627). The assay can be described thus: flow cytometry on cells.
human LAG‐3 on JRT LAG‐3^+ C8 cells (human), sequence (P18627 23-525): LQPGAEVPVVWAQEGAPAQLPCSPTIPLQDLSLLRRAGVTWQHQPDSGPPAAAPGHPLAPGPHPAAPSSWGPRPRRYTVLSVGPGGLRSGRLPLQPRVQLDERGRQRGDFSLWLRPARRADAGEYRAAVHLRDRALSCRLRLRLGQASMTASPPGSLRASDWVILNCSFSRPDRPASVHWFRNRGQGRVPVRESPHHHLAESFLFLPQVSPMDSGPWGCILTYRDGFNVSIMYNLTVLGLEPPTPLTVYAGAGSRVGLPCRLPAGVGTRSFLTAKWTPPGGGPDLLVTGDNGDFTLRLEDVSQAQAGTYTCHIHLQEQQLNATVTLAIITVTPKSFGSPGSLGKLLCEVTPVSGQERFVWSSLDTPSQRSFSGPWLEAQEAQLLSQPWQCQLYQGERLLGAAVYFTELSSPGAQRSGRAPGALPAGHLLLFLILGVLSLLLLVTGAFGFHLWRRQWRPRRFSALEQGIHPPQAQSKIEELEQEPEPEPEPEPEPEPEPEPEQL

“PE labeled pHLA‐DR1 dextramers loaded with HA_(306‐318) peptide (peptide-MHC)” had a percent of cells with detectable multimer staining of 19%.

These data come from paper PMC8101287.
